Measured values taken from US20050215629.

Test system: synthetic phosphotyrosine peptide Arg-Arg-Leu-Ile-Glu-Asp-Ala-Glu-Tyr-Ala-Ala-Arg-Gly, wherein the tyrosine is phosphorylated

Substance	PTPase activity (malachite green, absorbance at 660 nm)	in vitro PTPase assay
GST fusion protein of mitogen-activated protein kinase phosphatase 1 (MKP1)	660 nm absorbance approximately 0.6 above background (0.03)	–
GST fusion protein of SHP-1	660 nm absorbance approximately 0.6 above background (0.03)	–
GST fusion protein of SHP-1 catalytic domain (SHP-1cata)	–	the two proteins in their dephosphorylation of the phosphotyrosine peptide substrate in vitro
GST fusion protein of SHP-2	660 nm absorbance approximately 0.6 above background (0.03)	–
GST fusion protein of protein tyrosine phosphatase 1B (PTP1B)	660 nm absorbance approximately 0.6 above background (0.03)	–
